Numbering of substitutions follows the chain as printed. *1 amine or outer side, *2 acyl side, *3 side chain or, on linkers, in order; H or OH if unused. Where no end group is shown, it is not given here. Side-chain parts run from the residue outwards. [ ]: non-standard residue; d: D form. The star is where a group is joined. Dodecanoyl(12-OPh(4-COOH)) = O=C(O)c1ccc(OCCCCCCCCCCCC(=O)*)cc1; Undecanoyl(11-OPh(4-COOH)) = O=C(O)c1ccc(OCCCCCCCCCCC(=O)*)cc1; Decanoyl(10-(4-HOOC-PhO)) = O=C(O)c1ccc(OCCCCCCCCCC(=O)*)cc1; γGlu = O=C(O)[C@H](CCC(=O)[*:2])N[*:1]; εLys = N[C@@H](CCCCN[*:1])C(=O)[*:2]; 13‑carboxytridecanoyl = C14 diacid; AEEA = NCCOCCOCC(=O)O; Aib = CC(C)(N)C(=O)O
B1: GLP-1 derivative of Example 11 (Chem. 30), N^eps26- and C-terminal-Lys-N^eps-diacylated [Aib^8,His^31,Gln^34]-GLP-1-(7-37)-peptidyl-Lys (peptide)
peptide: HXEGTFTSDVSSYLEGQAAKEFIAHLVQGRGK
modifications: Aib at 8; eps-amino of Lys26 and of the added C-terminal Lys (position 38) each acylated with 10-(4-carboxyphenoxy)decanoyl-gGlu-Ser-Ser-Gly-Ser-Ser-Gly
B2: GLP-1 derivative of Example 31 (Chem. 50), N^eps26,N^eps37-diacylated [Aib^8,Arg^34,Lys^37]-GLP-1-(7-37)-peptide (peptide)
peptide: HXEGTFTSDVSSYLEGQAAKEFIAWLVRGRK
modifications: Aib at 8; eps-amino of Lys26 and Lys37 each acylated with 11-(4-carboxyphenoxy)undecanoyl-gGlu-Ser-Ser-Gly-Ser-Ser-Gly
B3: GLP-1 derivative of Example 24 (Chem. 43), N^eps26,N^eps37-diacylated [Aib^8,Arg^34,Lys^37]-GLP-1-(7-37)-peptide (peptide)
peptide: B2 peptide
modifications: Aib at 8; eps-amino of Lys26 and Lys37 each acylated with 12-(4-carboxyphenoxy)dodecanoyl-gGlu-Ser-Ser-Gly-Ser-Ser-Gly
B4: GLP-1 derivative of Example 12 (Chem. 31), N^eps26,N^eps37-diacylated [Aib^8,His^34,Lys^37]-GLP-1-(7-37)-peptide (peptide)
peptide: B2 peptide with R28H
modifications: Aib at 8; eps-amino of Lys26 and Lys37 each acylated with 13-carboxytridecanoyl-gGlu-Ser-Ser-Gly-Ser-Ser-Gly
B5: GLP-1 derivative of Example 2 (Chem. 21), N^eps26,N^eps37-diacylated [Aib^8,His^31,Gln^34,Lys^37]-GLP-1-(7-37)-peptide (peptide)
peptide: B2 peptide with W25H, R28Q
modifications: Aib at 8; eps-amino of Lys26 and Lys37 each acylated with 10-(4-carboxyphenoxy)decanoyl-gGlu-Ser-Ser-Gly-Ser-Ser-Gly
B6: GLP-1 derivative of Example 29 (Chem. 48), N^eps26,N^eps37-diacylated [Aib^8,Arg^34,Lys^37]-GLP-1-(7-37)-peptide (peptide)
peptide: B2 peptide
modifications: Aib at 8; eps-amino of Lys26 and Lys37 each acylated with 12-(4-carboxyphenoxy)dodecanoyl-gGlu-Ser-Gly-Ser-eps-Lys
B7: Comparative compound of Example 2a: Compound of Example 17, Chem. 36, in WO 2011/080103 (peptide)
peptide: B2 peptide with W25H, R28Q
modifications: Aib at 8; eps-amino of Lys26 and Lys37 each acylated with 10-(4-carboxyphenoxy)decanoyl via the gGlu-2xOEG linker (as Example 2, only the linker differs)
B8: GLP-1 derivative of Example 25 (Chem. 44), N^eps26,N^eps37-diacylated [Aib^8,Arg^34,Lys^37]-GLP-1-(7-37)-peptide (peptide)
peptide: B2 peptide
modifications: Aib at 8; eps-amino of Lys26 and Lys37 each acylated with 12-(4-carboxyphenoxy)dodecanoyl-gGlu-Ser-Ser-Gly-Ser-Ser-Gly-eps-Lys
B9: GLP-1 derivative of Example 30 (Chem. 49), N^eps26,N^eps37-diacylated [Imp^7,Aib^8,Arg^34,Lys^37]-GLP-1-(7-37)-peptide (peptide)
peptide: B2 peptide with H1X
modifications: Imp (imidazopropionyl, des-amino histidine) at 7; Aib at 8; eps-amino of Lys26 and Lys37 each acylated with 12-(4-carboxyphenoxy)dodecanoyl-gGlu-Ser-Gly-Ser-eps-Lys
B10: Comparative compound of Example 1a: Compound of Example 2, Chem. 21, in WO 2011/080103 (peptide)
peptide: B2 peptide
modifications: not fully specified; Aib at 8; eps-amino of Lys26 and Lys37 each acylated with 10-(4-carboxyphenoxy)decanoyl via the gGlu-2xOEG linker (as Example 1, only the linker differs)

Target: T1, human GLP-1 receptor (human, UniProt P43220 24-463)
Assay: cell-based or functional assay

Binder	In vitro potency (AlphaScreen cAMP; membranes) EC50 [nM]
H[Aib]EGTFTSDVSK([Ser-Ser-Ser-Ser-Ser-Ser-γGlu-Undecanoyl(11-OPh(4-COOH))])YLEGQAAK([Ser-Ser-Ser-Ser-Ser-Ser-γGlu-Undecanoyl(11-OPh(4-COOH))])EFIAWLVQGRG	0.146
H[Aib]EGTFTSDVSK([Ala-Ser-Ser-Ala-Ser-Ser-γGlu-Undecanoyl(11-OPh(4-COOH))])YLEGQAAK([Ala-Ser-Ser-Ala-Ser-Ser-γGlu-Undecanoyl(11-OPh(4-COOH))])EFIAWLVQGRG	0.183
HAEGTFTSDVSK([AEEA-AEEA-γGlu-Decanoyl(10-(4-HOOC-PhO))])YLEEQAAK([AEEA-AEEA-γGlu-Decanoyl(10-(4-HOOC-PhO))])EFIAWLVQGRG [Comparative compound of Example 5a: Compound of Example 38, Chem. 57, in WO 2012/062803]	0.224
H[Aib]EGTFTSDVSK([εLys-Gly-Ser-Ser-Gly-Ser-Ser-Gly-Ser-Ser-Gly-Ser-Ser-γGlu-Undecanoyl(11-OPh(4-COOH))])YLEGQAAK([εLys-Gly-Ser-Ser-Gly-Ser-Ser-Gly-Ser-Ser-Gly-Ser-Ser-γGlu-Undecanoyl(11-OPh(4-COOH))])EFIAWLVQGRG	0.35
H[Aib]EGTFTSDVSK([AEEA-AEEA-γGlu-13‑carboxytridecanoyl])YLEEQAVREFIAK([AEEA-AEEA-γGlu-13‑carboxytridecanoyl])LVRGRG [Comparative compound of Example 6a: Compound of Example 74, Chem. 93, in WO 2012/062803]	0.062
H[Aib]EGTFTSDVSK([εLys-Gly-Ser-Ser-Gly-Ser-Ser-γGlu-Undecanoyl(11-OPh(4-COOH))])YLEGQAAK([εLys-Gly-Ser-Ser-Gly-Ser-Ser-γGlu-Undecanoyl(11-OPh(4-COOH))])EFIAWLVQGRG	0.089
H[Aib]EGTFTSDVSK([Gly-Ser-Ser-Gly-Ser-Ser-γGlu-Dodecanoyl(12-OPh(4-COOH))])YLEGQAAK([Gly-Ser-Ser-Gly-Ser-Ser-γGlu-Dodecanoyl(12-OPh(4-COOH))])EFIAWLVQGRG	0.314
B1	0.381
B2	0.027
B3	0.166
B4	0.145
B5	0.116
B6	0.238
B7	0.582
B8	0.252
H[Aib]EGTFTSDVSK([AEEA-AEEA-γGlu-Decanoyl(10-(4-HOOC-PhO))])YLEEQAAK([AEEA-AEEA-γGlu-Decanoyl(10-(4-HOOC-PhO))])EFIAWLVQGRG [Comparative compound of Example 7a: Compound of Example 2, Chem. 21, in WO 2012/062803]	0.395
H[Aib]EGTFTSDVSK([AEEA-AEEA-γGlu-Decanoyl(10-(4-HOOC-PhO))])YLEGQAAK([AEEA-AEEA-γGlu-Decanoyl(10-(4-HOOC-PhO))])EFIAWLVQGRG [Comparative compound of Example 9a: Compound of Example 92, Chem. 111, in WO 2012/062803]	1.59

Target: T1, human GLP-1 receptor
Assay: cell-based or functional assay
Remark: another data set of the same source

Binder	In vitro potency (CRE-luciferase) low albumin EC50 [nM]
H[Aib]EGTFTSDVSK([Ser-Ser-Ser-Ser-Ser-Ser-γGlu-Undecanoyl(11-OPh(4-COOH))])YLEGQAAK([Ser-Ser-Ser-Ser-Ser-Ser-γGlu-Undecanoyl(11-OPh(4-COOH))])EFIAWLVQGRG	0.0083
H[Aib]EGTFTSDVSK([Ala-Ser-Ser-Ala-Ser-Ser-γGlu-Undecanoyl(11-OPh(4-COOH))])YLEGQAAK([Ala-Ser-Ser-Ala-Ser-Ser-γGlu-Undecanoyl(11-OPh(4-COOH))])EFIAWLVQGRG	0.015
HAEGTFTSDVSK([AEEA-AEEA-γGlu-Decanoyl(10-(4-HOOC-PhO))])YLEEQAAK([AEEA-AEEA-γGlu-Decanoyl(10-(4-HOOC-PhO))])EFIAWLVQGRG [Comparative compound of Example 5a: Compound of Example 38, Chem. 57, in WO 2012/062803]	0.025
H[Aib]EGTFTSDVSK([AEEA-AEEA-γGlu-13‑carboxytridecanoyl])YLEEQAVREFIAK([AEEA-AEEA-γGlu-13‑carboxytridecanoyl])LVRGRG [Comparative compound of Example 6a: Compound of Example 74, Chem. 93, in WO 2012/062803]	0.062
H[Aib]EGTFTSDVSK([Gly-Ser-Ser-Gly-Ser-Ser-γGlu-Dodecanoyl(12-OPh(4-COOH))])YLEGQAAK([Gly-Ser-Ser-Gly-Ser-Ser-γGlu-Dodecanoyl(12-OPh(4-COOH))])EFIAWLVQGRG	0.0096
B9	0.0094
B2	0.0028
B3	0.0052
B4	0.0098
B5	0.023
B6	0.005
B7	0.132
H[Aib]EGTFTSDVSK([AEEA-AEEA-γGlu-Decanoyl(10-(4-HOOC-PhO))])YLEEQAAK([AEEA-AEEA-γGlu-Decanoyl(10-(4-HOOC-PhO))])EFIAWLVQGRG [Comparative compound of Example 7a: Compound of Example 2, Chem. 21, in WO 2012/062803]	0.017
H[Aib]EGTFTSDVSK([Gly-Ser-Ser-Gly-Ser-Ser-γGlu-Undecanoyl(11-OPh(4-COOH))])YLEGQAAK([Gly-Ser-Ser-Gly-Ser-Ser-γGlu-Undecanoyl(11-OPh(4-COOH))])EFIAWLVQGRG	0.0056

Target: T1, human GLP-1 receptor
Assay: SPA, displacement of 125I-GLP-1(7-36)NH2, BHK membranes, 0.001% HSA
Procedure: Test compounds, membranes, SPA-particles and [¹²⁵I] ]-GLP-1(7-36)NH₂ were diluted in assay buffer. 50 ul (micro liter) buffer (“low albumin” experiment containing 0.001% HSA) was added to Optiplate, and 25 ul of test compounds were added. 5-10 μg membrane protein/sample was added (50 μl) corresponding to 0.1-0.2 mg protein/ml (to be preferably optimised for each membrane preparation). SPA-particles (Wheatgerm agglutinin SPA beads, Perkin Elmer, #RPNQ0001) were added in an amount of 0.5 mg/well (50 μl). The incubation was started with [¹²⁵I]-GLP-1]-(7-36)NH₂ (final concentration 0.06 nM corresponding to 49.880 DPM, 25 μl). The plates were sealed with PlateSealer and incubated for 120 minutes at 30° C. while shaking. The plates were centrifuged (1500 rpm, 10 min) and counted in Topcounter.
The IC₅₀ value was read from the curve as the concentration which displaces 50% of ¹²⁵I-GLP-1 from the receptor.

Binder	IC50 [nM]
H[Aib]EGTFTSDVSK([Ser-Ser-Ser-Ser-Ser-Ser-γGlu-Undecanoyl(11-OPh(4-COOH))])YLEGQAAK([Ser-Ser-Ser-Ser-Ser-Ser-γGlu-Undecanoyl(11-OPh(4-COOH))])EFIAWLVQGRG	0.54
H[Aib]EGTFTSDVSK([Ala-Ser-Ser-Ala-Ser-Ser-γGlu-Undecanoyl(11-OPh(4-COOH))])YLEGQAAK([Ala-Ser-Ser-Ala-Ser-Ser-γGlu-Undecanoyl(11-OPh(4-COOH))])EFIAWLVQGRG	0.5
HAEGTFTSDVSK([AEEA-AEEA-γGlu-Decanoyl(10-(4-HOOC-PhO))])YLEEQAAK([AEEA-AEEA-γGlu-Decanoyl(10-(4-HOOC-PhO))])EFIAWLVQGRG [Comparative compound of Example 5a: Compound of Example 38, Chem. 57, in WO 2012/062803]	5.8
H[Aib]EGTFTSDVSK([εLys-Gly-Ser-Ser-Gly-Ser-Ser-Gly-Ser-Ser-Gly-Ser-Ser-γGlu-Undecanoyl(11-OPh(4-COOH))])YLEGQAAK([εLys-Gly-Ser-Ser-Gly-Ser-Ser-Gly-Ser-Ser-Gly-Ser-Ser-γGlu-Undecanoyl(11-OPh(4-COOH))])EFIAWLVQGRG	2.27
H[Aib]EGTFTSDVSK([AEEA-AEEA-γGlu-13‑carboxytridecanoyl])YLEEQAVREFIAK([AEEA-AEEA-γGlu-13‑carboxytridecanoyl])LVRGRG [Comparative compound of Example 6a: Compound of Example 74, Chem. 93, in WO 2012/062803]	0.8
H[Aib]EGTFTSDVSK([εLys-Gly-Ser-Ser-Gly-Ser-Ser-γGlu-Undecanoyl(11-OPh(4-COOH))])YLEGQAAK([εLys-Gly-Ser-Ser-Gly-Ser-Ser-γGlu-Undecanoyl(11-OPh(4-COOH))])EFIAWLVQGRG	0.48
H[Aib]EGTFTSDVSK([Gly-Ser-Ser-Gly-Ser-Ser-γGlu-Dodecanoyl(12-OPh(4-COOH))])YLEGQAAK([Gly-Ser-Ser-Gly-Ser-Ser-γGlu-Dodecanoyl(12-OPh(4-COOH))])EFIAWLVQGRG	0.84
B1	12.8
B10	2.27
B9	0.18
B2	0.17
B3	0.19
B4	4.61
B5	8.99
B6	0.27
B7	44.5
B8	0.27
H[Aib]EGTFTSDVSK([AEEA-AEEA-γGlu-Decanoyl(10-(4-HOOC-PhO))])YLEEQAAK([AEEA-AEEA-γGlu-Decanoyl(10-(4-HOOC-PhO))])EFIAWLVQGRG [Comparative compound of Example 7a: Compound of Example 2, Chem. 21, in WO 2012/062803]	7.03
H[Aib]EGTFTSDVSK([Gly-Ser-Ser-Gly-Ser-Ser-γGlu-Undecanoyl(11-OPh(4-COOH))])YLEGQAAK([Gly-Ser-Ser-Gly-Ser-Ser-γGlu-Undecanoyl(11-OPh(4-COOH))])EFIAWLVQGRG	0.37
H[Aib]EGTFTSDVSK([AEEA-AEEA-γGlu-Decanoyl(10-(4-HOOC-PhO))])YLEGQAAK([AEEA-AEEA-γGlu-Decanoyl(10-(4-HOOC-PhO))])EFIAWLVQGRG [Comparative compound of Example 9a: Compound of Example 92, Chem. 111, in WO 2012/062803]	8.09

From patent publication US20170145069A1 (Novo Nordisk, published 2017)
